Test results as given in paper PMC8229658 (Viruses, 2021).

Target: T1, Flag-tagged human RuvBL2 (recombinant) (human, UniProt Q9Y230 1-463)
T1 construct: also called Flag-RuvBL2
Test: pull-down
Conditions: both partners purified

T1 sequence (Q9Y230 whole entry): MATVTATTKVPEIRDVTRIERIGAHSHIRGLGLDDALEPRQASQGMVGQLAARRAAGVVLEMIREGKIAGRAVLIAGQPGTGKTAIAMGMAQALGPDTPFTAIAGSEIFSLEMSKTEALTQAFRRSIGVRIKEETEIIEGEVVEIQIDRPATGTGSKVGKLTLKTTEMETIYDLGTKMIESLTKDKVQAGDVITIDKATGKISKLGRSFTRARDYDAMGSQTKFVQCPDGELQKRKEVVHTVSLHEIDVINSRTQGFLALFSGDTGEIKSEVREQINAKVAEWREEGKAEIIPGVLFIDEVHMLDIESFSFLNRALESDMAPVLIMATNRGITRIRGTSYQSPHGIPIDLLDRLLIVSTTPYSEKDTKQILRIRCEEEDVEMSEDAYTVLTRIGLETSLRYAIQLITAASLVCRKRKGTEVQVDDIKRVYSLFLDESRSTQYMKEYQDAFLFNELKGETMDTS

B1: GST-tagged RBD (amino acids 1-73) of the NS1 of PR8 virus (domain or fragment)
chain: MDPNTVSSFQVDCFLWHVRKRVADQELGDAPFLDRLRRDQKSLRGRGSTLGLDIETATRAGKQIVERILKEES
notes: also called GST-RBD
**Q.** Does B1 bind?
**A.** binds
